Km, kcat and kcat/Km data for three proteins are collected here from ChEMBL document CHEMBL1137660, “Molecular and biochemical characterization of the chromosome-encoded class A beta-lactamase BCL-1 from Bacillus clausii” (Antimicrob Agents Chemother, 2007).

Substrate in series [1]: CC1(C)S[C@@H]2[C@H](NC(=O)Cc3ccccc3)C(=O)N2[C@H]1C(=O)O
The experiment in a line: (§1) Activity of Bacillus cereus beta-lactamase BcI.

Substrate in series [2]: CC(=O)OCC1=C(C(=O)O)N2C(=O)[C@@H](NC(=O)CCC[C@@H](N)C(=O)O)[C@H]2SC1
The description is as §1.

Substrate in series [3]: CO/N=C(\C(=O)N[C@@H]1C(=O)N2C(C(=O)O)=C(COC(C)=O)CS[C@H]12)c1csc(N)n1
Conditions: Shouchella clausii; NR.

Substrate in series [4]: CO[C@@]1(NC(=O)C(C(=O)O)c2ccc(O)cc2)C(=O)N2C(C(=O)O)=C(CSc3nnnn3C)CO[C@@H]21
To be noted: Shouchella clausii; NR.

Substrate in series [5]: CC1(C)S[C@@H]2[C@H](NC(=O)[C@H](C(=O)O)c3ccsc3)C(=O)N2[C@H]1C(=O)O
Conditions: Shouchella clausii; NR.

Substrate in series [6]: CC(C)(O/N=C(\C(=O)N[C@@H]1C(=O)N2C(C(=O)[O-])=C(C[n+]3ccccc3)CS[C@H]12)c1csc(N)n1)C(=O)O
Conditions: Shouchella clausii; NR.

Substrate in series [7]: CO/N=C(\C(=O)N[C@@H]1C(=O)N2C(C(=O)O)=C(COC(N)=O)CS[C@H]12)c1ccco1
Conditions: Shouchella clausii; NR.

Substrate in series [8]: CO/N=C(\C(=O)N[C@@H]1C(=O)N2C(C(=O)[O-])=C(C[n+]3cccc4c3CCC4)CS[C@H]12)c1csc(N)n1
Conditions: Shouchella clausii; NR.

Substrate in series [9]: CC1(C)S[C@@H]2[C@H](NC(=O)Cc3ccccc3)C(=O)N2[C@H]1C(=O)O
Conditions: Shouchella clausii; NR.

Substrate in series [10]: CC1(C)S[C@@H]2[C@H](NC(=O)[C@H](N)c3ccc(O)cc3)C(=O)N2[C@H]1C(=O)O
To be noted: Shouchella clausii; NR.

Substrate in series [11]: CO[C@@]1(NC(=O)Cc2cccs2)C(=O)N2C(C(=O)O)=C(COC(N)=O)CS[C@@H]21
To be noted: Shouchella clausii; NR.

Substrate in series [12]: CCN1CCN(C(=O)N[C@@H](C(=O)N[C@@H]2C(=O)N3[C@@H]2SC(C)(C)[C@@H]3C(=O)O)c2ccccc2)C(=O)C1=O
To be noted: Shouchella clausii; NR.

Substrate in series [13]: CO/N=C(\C(=O)N[C@@H]1C(=O)N2C(C(=O)O)=C(CSc3nc(=O)c(O)nn3C)CS[C@H]12)c1csc(N)n1
Conditions: Shouchella clausii; NR.

Substrate in series [14]: O=C(Cc1cccs1)N[C@@H]1C(=O)N2C(C(=O)[O-])=C(C[n+]3ccccc3)CS[C@H]12
Conditions: Shouchella clausii; NR.

Substrate in series [15]: CC(=O)OCC1=C(C(=O)O)N2C(=O)[C@@H](NC(=O)Cc3cccs3)[C@H]2SC1
To be noted: Shouchella clausii; NR.

Substrate in series [16]: CO/N=C(\C(=O)N[C@@H]1C(=O)N2C(C(=O)[O-])=C(C[N+]3(C)CCCC3)CS[C@H]12)c1csc(N)n1
Conditions: Shouchella clausii; NR.

Substrate in series [17]: C[C@H]1[C@H](NC(=O)/C(=N\OC(C)(C)C(=O)O)c2csc(N)n2)C(=O)N1S(=O)(=O)O
To be noted: Shouchella clausii; NR.

Substrate in series [18]: CO/N=C(\C(=O)N[C@@H]1C(=O)N2C(C(=O)O)=C(COC(C)=O)CS[C@H]12)c1csc(N)n1
Conditions: Shouchella clausii; NR. This is another data set of the same source.

Substrate in series [19]: CC1(C)S[C@@H]2[C@H](NC(=O)[C@H](C(=O)O)c3ccsc3)C(=O)N2[C@H]1C(=O)O
To be noted: Shouchella clausii; NR. This is another data set of the same source.

Substrate in series [20]: CC(C)(O/N=C(\C(=O)N[C@@H]1C(=O)N2C(C(=O)[O-])=C(C[n+]3ccccc3)CS[C@H]12)c1csc(N)n1)C(=O)O
To be noted: Shouchella clausii; NR. The source holds these as a separate data set.

Substrate in series [21]: CO/N=C(\C(=O)N[C@@H]1C(=O)N2C(C(=O)O)=C(COC(N)=O)CS[C@H]12)c1ccco1
To be noted: Shouchella clausii; NR. This is another data set of the same source.

Substrate in series [22]: CO/N=C(\C(=O)N[C@@H]1C(=O)N2C(C(=O)[O-])=C(C[n+]3cccc4c3CCC4)CS[C@H]12)c1csc(N)n1
To be noted: Shouchella clausii; NR. This is another data set of the same source.

Substrate in series [23]: CC1(C)S[C@@H]2[C@H](NC(=O)Cc3ccccc3)C(=O)N2[C@H]1C(=O)O
To be noted: Shouchella clausii; NR. The source holds these as a separate data set.

Substrate in series [24]: CC1(C)S[C@@H]2[C@H](NC(=O)[C@H](N)c3ccc(O)cc3)C(=O)N2[C@H]1C(=O)O
To be noted: Shouchella clausii; NR. The source holds these as a separate data set.

Substrate in series [25]: CCN1CCN(C(=O)N[C@@H](C(=O)N[C@@H]2C(=O)N3[C@@H]2SC(C)(C)[C@@H]3C(=O)O)c2ccccc2)C(=O)C1=O
Conditions: Shouchella clausii; NR. This is another data set of the same source.

Substrate in series [26]: CO/N=C(\C(=O)N[C@@H]1C(=O)N2C(C(=O)O)=C(CSc3nc(=O)c(O)nn3C)CS[C@H]12)c1csc(N)n1
Conditions: Shouchella clausii; NR. The source holds these as a separate data set.

Substrate in series [27]: O=C(Cc1cccs1)N[C@@H]1C(=O)N2C(C(=O)[O-])=C(C[n+]3ccccc3)CS[C@H]12
To be noted: Shouchella clausii; NR. The source holds these as a separate data set.

Substrate in series [28]: CC(=O)OCC1=C(C(=O)O)N2C(=O)[C@@H](NC(=O)Cc3cccs3)[C@H]2SC1
Conditions: Shouchella clausii; NR. The source holds these as a separate data set.

Substrate in series [29]: CO/N=C(\C(=O)N[C@@H]1C(=O)N2C(C(=O)[O-])=C(C[N+]3(C)CCCC3)CS[C@H]12)c1csc(N)n1
Conditions: Shouchella clausii; NR. The source holds these as a separate data set.

Substrate in series [30]: O=C(Cc1cccs1)N[C@@H]1C(=O)N2C(C(=O)[O-])=C(C[n+]3ccccc3)CS[C@H]12
The series is described as follows: Ratio of Kcat to Km for Bacillus anthracis beta-lactamase Bla1.

Substrate in series [31]: CO/N=C(\C(=O)N[C@@H]1C(=O)N2C(C(=O)O)=C(COC(C)=O)CS[C@H]12)c1csc(N)n1
The series is described as follows: (§2) Activity of Bacillus anthracis beta-lactamase Bla1.

Substrate in series [32]: CC(C)(O/N=C(\C(=O)N[C@@H]1C(=O)N2C(C(=O)[O-])=C(C[n+]3ccccc3)CS[C@H]12)c1csc(N)n1)C(=O)O
The description is as §2.

Substrate in series [33]: CO/N=C(\C(=O)N[C@@H]1C(=O)N2C(C(=O)[O-])=C(C[N+]3(C)CCCC3)CS[C@H]12)c1csc(N)n1
Described as §2.

B1: Beta-lactamase 1 (Bacillus cereus), P00809 (protein)
chain: MILKNKRMLKIGICVGILGLSITSLEAFTGESLQVEAKEKTGQVKHKNQATHKEFSQLEKKFDARLGVYAIDTGTNQTISYRPNERFAFASTYKALAAGVLLQQNSIDSLNEVITYTKEDLVDYSPVTEKHVDTGMKLGEIAEAAVRSSDNTAGNILFNKIGGPKGYEKALRHMGDRITMSNRFETELNEAIPGDIRDTSTAKAIATNLKAFTVGNALPAEKRKILTEWMKGNATGDKLIRAGIPTDWVVGDKSGAGSYGTRNDIAVVWPPNSAPIIVLISSKDEKEAIYNDQLIAEATKVIVKGS
The Km is the concentration of substrate that gives half-maximal velocity. As a reminder, the kcat is the maximal rate divided by the concentration of active sites. Regarding B1, in series [1], the Km is 65 µM and the catalytic constant (kcat) is 2200 s⁻¹. Besides, in series [2], the turnover number (kcat) was found to be 0.2 s⁻¹.

B2: Beta-lactamase (Bacillus clausii), A8RR46 (protein)
chain: MKRSFFMLKTKITSSILVGACLLIGCSNGNEQPVSNEPEPEESVETGEAVFKALEEEYAARLGVFALDTGTGQTVSYRSDERFTYASAHKPLAVAVLLQQKSIEELEQLITYSADDLVNYNPITENHVETGMTLRELSDASIRYSDNTAANFIFDEIGGPEGFKEGLRAIGDTVTEPERIEPELNHVEPGEIQDTSTPEALAKSLQEFALGEALPADKQELLIDWLIGNTTGDALIRAGVPEGWEVGDKTGAGSYGTRNDIAILWPPEKEPIILAVLSSKDEKDAEYDDELIAKATEEVINLLAQTE
The term kcat/Km denotes the turnover number divided by the Michaelis constant. For the protein B2, the Michaelis constant (Km) in [3] came out at 790 µM; in [5] it was 6 µM; in series [6], 1000 µM; in series [7], 105 µM; in series [8], 136 µM; in series [9], 12 µM. Moreover, the Km in series [10] was 22 µM; in series [11], below 0.01 µM; in [12] it was 21 µM; in series [13], 950 µM; in series [14], 45 µM; in [15], 15 µM. In [16], the Km was above 1000 µM. Besides, the kcat in [3] was 22 s⁻¹; in series [4], below 0.01 s⁻¹; in [5], 5 s⁻¹; in [6], above 3.3 s⁻¹; in series [7], 15 s⁻¹; in series [8], 95 s⁻¹. The turnover number (kcat) is 97 s⁻¹ in series [9]; 85 s⁻¹ in series [10]; below 0.01 s⁻¹ in [11]; 38 s⁻¹ in [12]; 30 s⁻¹ in series [13]; 115 s⁻¹ in series [14]. Further, the kcat in series [15] was 22 s⁻¹; in series [16] it was above 40 s⁻¹; in [17], below 0.3 s⁻¹. Also, the kcat/Km in series [18] was 30000 M⁻¹ s⁻¹; in series [19] it was 1e+06 M⁻¹ s⁻¹; in series [20], below 3000 M⁻¹ s⁻¹; in series [21], 100000 M⁻¹ s⁻¹; in [22] it was 1e+06 M⁻¹ s⁻¹; in [23], 8e+06 M⁻¹ s⁻¹. Further, the catalytic efficiency (kcat/Km) was 4e+06 M⁻¹ s⁻¹ in [24]; 2e+06 M⁻¹ s⁻¹ in [25]; 30000 M⁻¹ s⁻¹ in series [26]; 2.5e+06 M⁻¹ s⁻¹ in series [27]; 1.5e+06 M⁻¹ s⁻¹ in series [28]; below 40000 M⁻¹ s⁻¹ in [29].

B3: Beta-lactamase (Bacillus anthracis), Q93T42 (protein)
chain: MIVLKNKKMLKIGMCVGILGLSITSLVTFTGGALQVEAKEKTGQVKHKNQATHKEFSQLEKKFDARLGVYAIDTGTNQTIAYRPNERFAFASTYKALAAGVLLQQNSTKKLDEVITYTKEDLVDYSPVTEKHVDTGMTLGEIAEAAVRYSDNTAGNILFHKIGGPKGYEKALRQMGDRVTMSDRFETELNEAIPGDIRDTSTAKAIATNLKAFTAGNALPNHKRNILTKWMKGNATGDKLIRAGVPTNWVVADKSGAGSYGTRNDIAIVWPPNRAPIIIAILSSKDEKGATYDNQLIAEAAEVIVNAFR
Consider B3, for which the kcat/Km in series [30] came to 1.1e+06 M⁻¹ s⁻¹. Further, the catalytic constant (kcat) in series [31], in [32] and in series [33] was below 0.2 s⁻¹ in each case.
